Measurements taken from the supplement of paper PMC10567573.

B1: ATL3 (parent)
chain: HFKKTKKMGGKDFSFRYQQELEEE

Variants of: B1
Test: protein stability index of a GFP-peptide fusion (GPS, HEK-293T) (PSI 1-6); higher = more stable
Details: c terminus: a fixed tail appended
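Note: lentivirally expressed fusions sorted by FACS into six bins by GFP to DsRed ratio, PSI derived from sequencing read proportions per bin multiplied by bin number.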

Variant | protein stability index
HFKKTKKMGGKDFSFRYQHELEEE | 2.38
HFKKTKKMGGKDFSFRYQEELEEE | 2.45
HFKKTKKMGGKDFSFRYQGELEEE | 3.99
HFKKTKKMGGKDFSFRYQSELEEE | 2.5
HFKKTKKMGGKDFSFRYQVELEEE | 2.92
HFKKTKKMGGKDFSFRYQIELEEE | 1.46
HFKKTKKMGGKDFSFRYQNELEEE | 4.01
HFKKTKKMGGKDFSFRYQPELEEE | 3.56
HFKKTKKMGGKDFSFRYQDELEEE | 3.36
HFKKTKKMGGKDFSFRYQKELEEE | 1.89
HFKKTKKMGGKDFSFRYQAELEEE | 3.52
HFKKTKKMGGKDFSFRYQTELEEE | 2.21
HFKKTKKMGGKDFSFRYQCELEEE | 1.57
HFKKTKKMGGKDFSFRYQWELEEE | 2.03
HFKKTKKMGGKDFSFRYQFELEEE | 1.71
HFKKTKKMGGKDFSFRYQRELEEE | 2.52
HFKKTKKMGGKDFSFRYQQECEEE | 2.1
HFKKTKKMGGKDFSFRYQQENEEE | 4.27
HFKKTKKMGGKDFSFRYQQEVEEE | 2.72
HFKKTKKMGGKDFSFRYQQESEEE | 4
HFKKTKKMGGKDFSFRYQQEPEEE | 4.57
HFKKTKKMGGKDFSFRYQQEMEEE | 1.53
HFKKTKKMGGKDFSFRYQQEFEEE | 1.53
HFKKTKKMGGKDFSFRYQQEYEEE | 1.4

Variant | protein stability index
HFKKTKKMGGKDFSFRYQQEKEEE | 3.3
HFKKTKKMGGKDFSFRYQQEQEEE | 2.4
HFKKTKKMGGKDFSFRYQQEHEEE | 2.44
HFKKTKKMGGKDFSFRYQQEDEEE | 4.71
HFKKTKKMGGKDFSFRYQQEREEE | 2.46
HFKKTKKMGGKDFSFRYQQEIEEE | 2.98
HFKKTKKMGGKDFSFRYQQEEEEE | 3.19
HFKKTKKMGGKDFSFRYQQETEEE | 4.24
HFKKTKKMGGKDFSFRYQQELETE | 2.55
HFKKTKKMGGKDFSFRYQQELENE | 2.67
HFKKTKKMGGKDFSFRYQQELEAE | 2.2
HFKKTKKMGGKDFSFRYQQELEFE | 2.27
HFKKTKKMGGKDFSFRYQQELEPE | 4.12
HFKKTKKMGGKDFSFRYQQELEQE | 1.81
HFKKTKKMGGKDFSFRYQQELEGE | 1.88
HFKKTKKMGGKDFSFRYQQELEME | 2.61
HFKKTKKMGGKDFSFRYQQELECE | 3.01
HFKKTKKMGGKDFSFRYQQELEDE | 2.42
HFKKTKKMGGKDFSFRYQQELEKE | 2.46
HFKKTKKMGGKDFSFRYQQELEHE | 2.02
HFKKTKKMGGKDFSFRYQQELELE | 2.22
HFKKTKKMGGKDFSFRYQQELEYE | 1.71
HFKKTKKMGGKDFSFRYQQELEIE | 1.97
HFKKTKKMGGKDFSFRYQQELESE | 2.2

Variant | protein stability index
HFKKTKKMGGKDFSFRYQQELEVE | 2.27
HFKKTKKMGGKDFSFRYQQELFEE | 1.85
HFKKTKKMGGKDFSFRYQQELQEE | 1.59
HFKKTKKMGGKDFSFRYQQELNEE | 1.72
HFKKTKKMGGKDFSFRYQQELHEE | 2.83
HFKKTKKMGGKDFSFRYQQELIEE | 1.79
HFKKTKKMGGKDFSFRYQQELCEE | 3.15
HFKKTKKMGGKDFSFRYQQELTEE | 2.03
HFKKTKKMGGKDFSFRYQQELDEE | 2.2
HFKKTKKMGGKDFSFRYQQELKEE | 3.18
HFKKTKKMGGKDFSFRYQQELYEE | 2.15
HFKKTKKMGGKDFSFRYQQELSEE | 1.8
HFKKTKKMGGKDFSFRYQQELVEE | 2.41
HFKKTKKMGGKDFSFRYQQELMEE | 1.8
HFKKTKKMGGKDFSFRYQQELWEE | 1.3
HFKKTKKMGGKDFSFRYQQELPEE | 3.31
HFKKTKKMGGKDFSFRYQQELGEE | 2.5
HFKKTKKMGGKDFSFRYQQELLEE | 1.99
HFKKTKKMGGKDFSFRYQQELEEA | 2.68
HFKKTKKMGGKDFSFRYQQELEEF | 2.01
HFKKTKKMGGKDFSFRYQQELEEC | 2.74
HFKKTKKMGGKDFSFRYQQELEEK | 3.43
HFKKTKKMGGKDFSFRYQQELEEG | 2.63
HFKKTKKMGGKDFSFRYQQELEEM | 1.81

Variant | protein stability index
HFKKTKKMGGKDFSFRYQQELEEH | 3.13
HFKKTKKMGGKDFSFRYQQELEEI | 2.16
HFKKTKKMGGKDFSFRYQQELEED | 2.28
HFKKTKKMGGKDFSFRYYQELEEE | 1.81
HFKKTKKMGGKDFSFRYQQALEEE | 3.31
HFKKTKKMGGKDFSFRYQQFLEEE | 3.58
HFKKTKKMGGKDFSFRYQQKLEEE | 4.17
HFKKTKKMGGKDFSFRYQQRLEEE | 3.96
HFKKTKKMGGKDFSFRYQQDLEEE | 2.25
HFKKTKKMGGKDFSFRYQQGLEEE | 3.11
HFKKTKKMGGKDFSFRYQQMLEEE | 3.43
HFKKTKKMGGKDFSFRYQQQLEEE | 2.91
HFKKTKKMGGKDFSFRYQQPLEEE | 3.22
HFKKTKKMGGKDFSFRYQQTLEEE | 3.31
HFKKTKKMGGKDFSFRYQQWLEEE | 2
HFKKTKKMGGKDFSFRYQQSLEEE | 3.94
HFKKTKKMGGKDFSFRYQQHLEEE | 3.98
HFKKTKKMGGKDFSFRYQQNLEEE | 3.16
HFKKTKKMGGKDFSFRYQQILEEE | 3.47
HFKKTKKMGGKDFSFRYQQYLEEE | 3.14
HFKKTKKMGGKDFSFRYQQCLEEE | 4.73
HFKKTKKMGGKDFSFRYQQVLEEE | 2.51
